Data as given in US7628975B2, “Compositions and methods for detecting and quantifying COX-2 activity and 2-arachidonylgycerol metabolites” (Vanderbilt University, priority 2000, dated 2009).

Assays:
[1] = tested on: RAW264.7 cells; assay: Exogenous 2-AG metabolism to PGD2-G by RAW264.7 cells (LC/MS); type: cell-based, murine; settings: inhibitor 3 μM, activated RAW264.7 cells, 2-AG 20 μM
Procedure: Briefly, macrophages (30-50% confluence) are activated with IFN-γ (10 units/mL) and LPS (1 μg/mL) in serum-free DMEM for 7 hr at 37° C. prior to treatment. Activated RAW264.7 cell media are aspirated and replaced with fresh serum-free DMEM or PBS. […] After 30 min, medium or PBS is removed and extracted two times with an equal volume of CHCl3:MeOH (2:1). The solvent is evaporated and the residue is dissolved in 1 mL H2O:MeCN (95:5) and applied to a water-charged C18 solid phase extraction column (Varian). Following a water wash, glyceryl prostaglandins are eluted with H2O:MeCN (3:7). The eluant is lyophilized, dissolved in H2O:MeCN (1:1), and subjected to LC/MS analysis. […] Activated RAW264.7 cell medium is aspirated and replaced with fresh serum-free DMEM. […] After 20 min, medium is removed and the cells are treated with 8.0 ng pentadeuterated glyceryl prostaglandin standard. Medium is collected and extracted two times with an equal volume of CHCl3:MeOH (2:1). The solvent is evaporated and the residue is redissolved in H2O:MeCN (1:1), filtered (0.22 μm nylon), and subjected to LC/MS analysis.

[2] = buffer
Procedure: Then, a metabolite of the COX-2 selective substrate, such as PGH2-G, is measured.

[3] = target: T1, COX-2 (Homo sapiens, UniProt P35354); assay: HPLC/UV quantification of products in base-treated COX-2/2-AG incubation mixtures; type: biochemical; settings: COX-2 oxygenation of 2-AG, n=5
T1 sequence (P35354 18-604): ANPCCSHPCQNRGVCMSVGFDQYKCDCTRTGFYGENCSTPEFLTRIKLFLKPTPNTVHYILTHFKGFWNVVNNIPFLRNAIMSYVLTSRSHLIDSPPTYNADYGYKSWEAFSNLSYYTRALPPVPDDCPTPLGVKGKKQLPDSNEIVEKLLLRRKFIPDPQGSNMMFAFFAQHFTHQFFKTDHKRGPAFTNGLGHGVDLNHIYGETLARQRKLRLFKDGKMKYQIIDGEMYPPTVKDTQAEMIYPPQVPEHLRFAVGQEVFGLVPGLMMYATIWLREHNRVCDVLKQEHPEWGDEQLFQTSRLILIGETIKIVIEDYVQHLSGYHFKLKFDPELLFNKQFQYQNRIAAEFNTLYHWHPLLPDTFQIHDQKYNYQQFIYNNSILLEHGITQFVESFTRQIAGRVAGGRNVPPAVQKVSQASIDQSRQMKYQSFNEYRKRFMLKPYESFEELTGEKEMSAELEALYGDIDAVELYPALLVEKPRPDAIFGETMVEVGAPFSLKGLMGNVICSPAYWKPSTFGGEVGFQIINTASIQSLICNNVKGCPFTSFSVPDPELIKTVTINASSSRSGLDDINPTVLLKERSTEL
Procedure: Estimates of relative amounts of the individual PG-Gs can be made by reversed-phase HPLC with UV detection. […] Quantification of PGE2-G and HETE-Gs is accomplished by HPLC/UV analysis of base-treated COX-2/2-AG incubation mixtures using 5-HETE as an internal standard. PGE2-G is the major product of oxygenation (PGE2-G/HETE-G=4.0±0.1, n=5) and 11-HETE-G is more abundant than 15-HETE-G (11-HETE-G/15-HETE-G=3.4±0.1, n=5). HETE-G regiochemistry is confirmed by mass spectrometry of saponified, HPLC-purified HETE products.

[4] = substrate: CCCCC/C=C\C/C=C\C/C=C\C/C=C\CCCC(=O)O; assay: Steady-state kinetics of COX-2 mediated oxygenation (O2 uptake), human enzyme; type: biochemical; settings: other: hCOX-2, substrate oxygenation
Procedure: (§1) The ability of COX-1 and COX-2 to metabolize different substrates, such as 2-AG and arachidonic acid (AA) can be determined, for example, by measuring relative oxygen uptake. FIG. 9 is a representative oxygen uptake curve for 100 μM 2-AG or AA treated with 150 nM purified COX-2 or 150 nM ovine COX-1. The horizontal bar represents 20-seconds. The vertical bar represents 10 μM O2 uptake.

[5] = substrate: CCCCC/C=C\C/C=C\C/C=C\C/C=C\CCCCOC(CO)CO; assay: as above; type: biochemical; settings: other: hCOX-2, substrate oxygenation
Procedure: as §1

[6] = substrate: CCCCC/C=C\C/C=C\C/C=C\C/C=C\CCCC(=O)O; assay: Steady-state kinetics of COX-2 mediated oxygenation (O2 uptake), murine enzyme; type: biochemical; settings: other: mCOX-2, substrate oxygenation
Procedure: as §1

[7] = substrate: CCCCC/C=C\C/C=C\C/C=C\C/C=C\CCCCOC(CO)CO; assay: as above; type: biochemical; settings: other: mCOX-2, substrate oxygenation
Procedure: as §1

COc1ccc2c(c1)c(CC(=O)NCCc1ccccc1)c(C)n2C(=O)c1ccc(Cl)cc1 [indomethacin phenethylamide, 2-[1-(4-chlorobenzoyl)-5-methoxy-2-methyl-1H-indol-3-yl]-N-phenethylacetamide]
Effect on PGD2-G biosynthesis [1]: inhibited

COc1ccc2c(c1)c(CC(=O)O)c(C)n2C(=O)c1ccc(Cl)cc1 [indomethacin]
Effect on PGD2-G biosynthesis [1]: inhibited

CCCCC[C@H](O)/C=C/[C@@H]1[C@@H](C/C=C\CCCC(=O)OC(CO)CO)[C@@H]2C[C@H]1OO2 [PGH2-G, prostaglandin H2-glycerol ester]
half-life in aqueous solution [2]: approximately 20 seconds

CCCCC[C@H](O)/C=C/[C@H]1[C@H](O)CC(=O)[C@@H]1C/C=C\CCCC(=O)OCC(O)CO (some centres unmarked) [PGE2-G, prostaglandin E2-glycerol ester]
PGE2-G/HETE-G product ratio [3]: 4.0±0.1

CCCCCC=CC=CC(O)CC=CCC=CCCCC(=O)OC(CO)CO (centres unmarked) [11-HETE-G, 11-hydroxy-eicosatetranoic glycerol ester]
11-HETE-G/15-HETE-G product ratio [3]: 3.4±0.1

B1: hCOX-2 (Homo sapiens) (protein)
chain: ANPCCSHPCQNRGVCMSVGFDQYKCDCTRTGFYGENCSTPEFLTRIKLFLKPTPNTVHYILTHFKGFWNVVNNIPFLRNAIMSYVLTSRSHLIDSPPTYNADYGYKSWEAFSNLSYYTRALPPVPDDCPTPLGVKGKKQLPDSNEIVEKLLLRRKFIPDPQGSNMMFAFFAQHFTHQFFKTDHKRGPAFTNGLGHGVDLNHIYGETLARQRKLRLFKDGKMKYQIIDGEMYPPTVKDTQAEMIYPPQVPEHLRFAVGQEVFGLVPGLMMYATIWLREHNRVCDVLKQEHPEWGDEQLFQTSRLILIGETIKIVIEDYVQHLSGYHFKLKFDPELLFNKQFQYQNRIAAEFNTLYHWHPLLPDTFQIHDQKYNYQQFIYNNSILLEHGITQFVESFTRQIAGRVAGGRNVPPAVQKVSQASIDQSRQMKYQSFNEYRKRFMLKPYESFEELTGEKEMSAELEALYGDIDAVELYPALLVEKPRPDAIFGETMVEVGAPFSLKGLMGNVICSPAYWKPSTFGGEVGFQIINTASIQSLICNNVKGCPFTSFSVPDPELIKTVTINASSSRSGLDDINPTVLLKERSTEL
Km [4]: 6.1 ± 0.6 µM | kcat [4]: 14.7 ± 0.5 s⁻¹ | kcat/Km [4]: 2.4e+06 M⁻¹ s⁻¹ | Km [5]: 4.4 ± 0.9 µM | kcat [5]: 17.4 ± 1.1 s⁻¹ | kcat/Km [5]: 4e+06 M⁻¹ s⁻¹

B2: mCOX-2 (Mus musculus) (protein)
chain: ANPCCSNPCQNRGECMSTGFDQYKCDCTRTGFYGENCTTPEFLTRIKLLLKPTPNTVHYILTHFKGVWNIVNNIPFLRSLIMKYVLTSRSYLIDSPPTYNVHYGYKSWEAFSNLSYYTRALPPVADDCPTPMGVKGNKELPDSKEVLEKVLLRREFIPDPQGSNMMFAFFAQHFTHQFFKTDHKRGPGFTRGLGHGVDLNHIYGETLDRQHKLRLFKDGKLKYQVIGGEVYPPTVKDTQVEMIYPPHIPENLQFAVGQEVFGLVPGLMMYATIWLREHNRVCDILKQEHPEWGDEQLFQTSRLILIGETIKIVIEDYVQHLSGYHFKLKFDPELLFNQQFQYQNRIASEFNTLYHWHPLLPDTFNIEDQEYSFKQFLYNNSILLEHGLTQFVESFTRQIAGRVAGGRNVPIAVQAVAKASIDQSREMKYQSLNEYRKRFSLKPYTSFEELTGEKEMAAELKALYSDIDVMELYPALLVEKPRPDAIFGETMVELGAPFSLKGLMGNPICSPQYWKPSTFGGEVGFKIINTASIQSLICNNVKGCPFTSFNVQDPQPTKTATINASASHSRLDDINPTVLIKRRSTEL
Km [6]: 8.2 ± 1.6 µM | kcat [6]: 20.5 ± 1.6 s⁻¹ | kcat/Km [6]: 2.5e+06 M⁻¹ s⁻¹ | Km [7]: 4.7 ± 0.8 µM | kcat [7]: 11.1 ± 0.7 s⁻¹ | kcat/Km [7]: 2.3e+06 M⁻¹ s⁻¹
